± gives the standard deviation of the averaged measurements.
System: ATP
Experiment: switch fluorescence ratio, 500 uM ATP over buffer (Cy3 cluster intensity, sum of 5 cycles each) (fold (ratio)); higher = stronger signal-on switching upon ATP binding; sequences stand for … in TCGTCGGCAGCGTCAGATGTGTATAAGAGACAGTTTTTTTTTTTTTTTTTTTTTTTTT…TC
Details: aptamer strand: ATP DNA aptamer (quencher-CACCTGGGGGAGTATTGCGGAGGAAGG + anchor), 100 nM annealed; ATP concentration: 500 uM
Outline: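 Cy3-labelled switching-strand clusters on a modified Illumina MiSeq flow-cell were annealed to 100 nM quencher-labelled ATP aptamer and imaged first in selection buffer, then after 15 min with 500 uM ATP at 22 °C. NaOH stripping and re-annealing separated each of five buffer/ATP cycles, and clusters outside 100-1000 RFU were excluded. The fluorescence ratio sums target-cycle Cy3 intensity over buffer-cycle Cy3 intensity per cluster and averages it per switch-domain sequence.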
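Note: ATP exposure 15 min at 22 °C before imaging.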

TTTGAGGTAA
switch fluorescence ratio: 1.008 ± 0.0083

TTTGAGGTCC
switch fluorescence ratio: 1 ± 0.07

TTTGAGGTGC
switch fluorescence ratio: 1.06 ± 0.031

TTTGAGTATT
switch fluorescence ratio: 0.992 ± 0.047

TTTGAGTGCT
switch fluorescence ratio: 0.997 ± 0.029

TTTGAGTTAA
switch fluorescence ratio: 0.994 ± 0.037

TTTGAGTTGG
switch fluorescence ratio: 1 ± 0.02

TTTGATAATA
switch fluorescence ratio: 1.02 ± 0.056

TTTGATACCA
switch fluorescence ratio: 1.005 ± 0.0051

TTTGATAGGA
switch fluorescence ratio: 0.975 ± 0.02

TTTGATATCC
switch fluorescence ratio: 1 ± 0.017

TTTGATATGC
switch fluorescence ratio: 1.116 ± 0.0054

TTTGATATTC
switch fluorescence ratio: 0.971 ± 0.022

TTTGATCCTG
switch fluorescence ratio: 0.9711 ± 0.0081

TTTGATCTGT
switch fluorescence ratio: 0.984 ± 0.012

TTTGATGGGA
switch fluorescence ratio: 1.025 ± 0.0068

TTTGATGGTA
switch fluorescence ratio: 0.943 ± 0.026

TTTGATTCAC
switch fluorescence ratio: 1.02 ± 0.041

TTTGATTGAA
switch fluorescence ratio: 0.975 ± 0.03

TTTGATTGGT
switch fluorescence ratio: 0.99 ± 0.038

TTTGATTTAC
switch fluorescence ratio: 1 ± 0.028

TTTGATTTCG
switch fluorescence ratio: 1.01 ± 0.024

TTTGCAAAGG
switch fluorescence ratio: 1.007 ± 0.0022

TTTGCACAGT
switch fluorescence ratio: 1.01 ± 0.021

TTTGCACATT
switch fluorescence ratio: 1.02 ± 0.069

TTTGCACGTA
switch fluorescence ratio: 0.991 ± 0.084

TTTGCAGAAA
switch fluorescence ratio: 0.996 ± 0.018

TTTGCAGAAT
switch fluorescence ratio: 1.006 ± 0.0094

TTTGCAGACA
switch fluorescence ratio: 1.01 ± 0.027

TTTGCAGGGG
switch fluorescence ratio: 1.06 ± 0.1

TTTGCAGTTT
switch fluorescence ratio: 0.997 ± 0.024

TTTGCATGCT
switch fluorescence ratio: 1.024 ± 0.0036

TTTGCATTAG
switch fluorescence ratio: 1.11 ± 0.028

TTTGCATTCA
switch fluorescence ratio: 0.999 ± 0.038

TTTGCCAGAC
switch fluorescence ratio: 1.23 ± 0.24

TTTGCCCTTT
switch fluorescence ratio: 1.24 ± 0.32

TTTGCCGCGT
switch fluorescence ratio: 1.03 ± 0.012

TTTGCCTGAC
switch fluorescence ratio: 1.57 ± 0.37

TTTGCGAGAG
switch fluorescence ratio: 1.01 ± 0.045

TTTGCGATTT
switch fluorescence ratio: 1.15 ± 0.14

TTTGCGGCGT
switch fluorescence ratio: 0.986 ± 0.022

TTTGCGGTTT
switch fluorescence ratio: 1.02 ± 0.046

TTTGCGTTGT
switch fluorescence ratio: 1.022 ± 0.0061

TTTGCTCAGG
switch fluorescence ratio: 1.09 ± 0.037

TTTGCTGGAT
switch fluorescence ratio: 1.08 ± 0.046

TTTGCTTTCC
switch fluorescence ratio: 1.2 ± 0.17

TTTGCTTTGT
switch fluorescence ratio: 1.01 ± 0.023

TTTGGAACAT
switch fluorescence ratio: 1.01 ± 0.042

TTTGGAATTG
switch fluorescence ratio: 0.988 ± 0.016

TTTGGAATTT
switch fluorescence ratio: 1.06 ± 0.1

TTTGGACAAG
switch fluorescence ratio: 1 ± 0.061

TTTGGACTGG
switch fluorescence ratio: 1.01 ± 0.067

TTTGGACTGT
switch fluorescence ratio: 0.988 ± 0.019

TTTGGAGACT
switch fluorescence ratio: 1.03 ± 0.02

TTTGGATGTG
switch fluorescence ratio: 0.984 ± 0.032

TTTGGCACGC
switch fluorescence ratio: 1.11 ± 0.04

TTTGGCAGGT
switch fluorescence ratio: 1.03 ± 0.026

TTTGGCATTA
switch fluorescence ratio: 1.09 ± 0.1

TTTGGCCCCG
switch fluorescence ratio: 0.9612 ± 0.0093

TTTGGCTCTG
switch fluorescence ratio: 1.03 ± 0.025

TTTGGCTTGT
switch fluorescence ratio: 0.9714 ± 0.0068

TTTGGGAA
switch fluorescence ratio: 1.03 ± 0.015

TTTGGGAAAT
switch fluorescence ratio: 1.07 ± 0.1

TTTGGGAAGC
switch fluorescence ratio: 1.02 ± 0.033

TTTGGGAGCA
switch fluorescence ratio: 0.9882 ± 0.0022

TTTGGGAGGT
switch fluorescence ratio: 0.99 ± 0.063

TTTGGGCAAG
switch fluorescence ratio: 1.06 ± 0.043

TTTGGGCACT
switch fluorescence ratio: 0.996 ± 0.024

TTTGGGCCGA
switch fluorescence ratio: 0.987 ± 0.028

TTTGGGCCTC
switch fluorescence ratio: 0.9842 ± 0.0021

TTTGGGCCTT
switch fluorescence ratio: 1.02 ± 0.034

TTTGGGCGAA
switch fluorescence ratio: 1.002 ± 0.0068

TTTGGGCTTG
switch fluorescence ratio: 1.013 ± 0.0054

TTTGGGGAAA
switch fluorescence ratio: 1.16 ± 0.42

TTTGGGGACA
switch fluorescence ratio: 1.01 ± 0.019

TTTGGGGGTT
switch fluorescence ratio: 1.01 ± 0.039

From the supplement of paper PMC10126150
